Assay results as given in patent publication US20260234247A1 (published 2026).
Residue numbers refer to the chain shown, from its start.

B1: LK-RB2-25 (antibody, human IgG4 S228P, kappa, V domains shown)
VH: QVQLKESGPGLVAPSQSLSITCTVSGFSLTSYGVHWVRQPPGKGLEWLGVIWAGGSTKYNSALMSRLSINKDNSKSQVFLKMNSLQTDDTAMYYCARDQMVRSAMDYWGQGTSVTVSS
VL: DIQMIQSPSSMFASLGDRVSLSCRASQGIRGNLDWYQQKPGGTIKLLIYSTSNLNSAVPSRFSGSGSGSDYSLTISNLESEDFADYYCLQRNASPYTFGGGTKLEIKR
B2: LK-RB2-6 (antibody, human IgG4 S228P, kappa, V domains shown)
VH: QIQLVQSGPELKKPGETVKISCKASGYTFTTYGMSWVKQAPGKGLEWMGWINIYSGVPTYADDFKGRFAFSLETSASTAYLQINNLKNEDTATYFCARRGDYDSFYFDYWGQGTTLTVSS
VL: DIVMSQSPSSLAVSVGEKVTVSCKSSQSLLYSYNQKNYLAWYQQKPGQSPKLLIYWSSTRESGVPDRFTGSGSGTDFTLTISSVKAEDLAVYYCQQCYNYPYTFGGGTKLEIKR
B3: LK-RB2-13 (antibody, human IgG4 S228P, kappa, V domains shown)
VH: QIQLVQSGPELKKPGETVKISCKASGYTFTTYGMSWVKQAPGKGLQWMGWINTYSGVPTFADDFKGRFAFSLDTSASTAYLQINNLKNEDTATYFCARRINWDGYAMDYWGQGTSVTVSS
VL: B2 VL with I2S, V21M, Y33G, N37S, S57A, C97Y, N99S
B4: LK-RB2-17 (antibody, human IgG4 S228P, kappa, V domains shown)
VH: B3 VH with T31N, K65R, N85S, T93A
VL: B2 VL with I2S, V21L, Y33G, N37S, S57A, T59S, C97Y, N99S, Y100F
B5: LK-RB2-43 (antibody, human IgG4 S228P, kappa, V domains shown)
VH: EVQLVESGGDLVKPGGSLKLSCAASGFTFSSYGMSWVRQTPDKRLEWVATISGGGTYTYYPDSVKGRFTISRDNAKNTLYLQMSSLKSEDTAMYYCASGAMDYWGQGTSVTVSS
VL: QIVLTQSPAILSASPGEKVTMTCSANSSVSSMYKYQQKPGSSPKPWIYGTSNLASGVPARFSGSGSGTSYSLTISSMEAADAATYYCQQYHSHPLTFGAGTKLELKR
B6: LK-RB2-44 (antibody, human IgG4 S228P, kappa, V domains shown)
VH: B5 VH
VL: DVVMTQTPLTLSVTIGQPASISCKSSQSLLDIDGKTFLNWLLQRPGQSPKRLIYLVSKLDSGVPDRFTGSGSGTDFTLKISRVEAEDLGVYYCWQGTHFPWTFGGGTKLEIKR
B7: LK-RB2-31 (antibody, human IgG4 S228P, kappa, V domains shown)
VH: QVQLQQPGAELVKPGASMKLSCKASGYTFTTYYMYWVKQRPGLGLEWIGGINPSNGGTTFNEKFKNKATLTVDKSSSTAYMQLRSLTSEDSAVYYCTRWRFFDVWGAGTTVTVSS
VL: SIVMTQTPEFLLVSAGDRVTITCKASQSVNNDVAWFQQKPGQSPKLLIYYASNRYTGVPDRFTGSGYGTDFTFTISTVQAEDLAIYFCQQDYSSPPTFGGATKLEIKR
B8: LK-RB2-29 (antibody, human IgG4 S228P, kappa, V domains shown)
VH: QVQLQQSGAELARPGASVKLSCKASGYTFTSYWMQWVKQRPGQGLEWIGAIYPGDGDTRYTQKFKGKATLTADKSSSTAYMQLSSLASEDSAVYYCARGYYGSSYADYFDYWGQGTTLTVSS
VL: DIQMTQSPASLSASVGETVTITCRASGNIHNYLAWYQQKQGKSPQLLVYNAKTLADGVPSRFSGSGSGTQYSLKINSLQPEDFGSYYCQHFWSTPPTFGGGTKLEIKR
B9: LK-RB2-27 (antibody, human IgG4 S228P, kappa, V domains shown)
VH: DVKLVESGGGLVKPGGSLKLSCAASGFTFSSYSMSWVRQTPEKRLEWVATISTGGSYTYYPDSVKGRFTISRDNAKNTLYLQMSSLKSEDTAMFYCTRGSMDYWGQGTSVTVSS
VL: DILMTQSPSSMSVSLGDTVSITCHASQDISSNIGWLQQKPGNSFKGLIYHGTNLEDGVPSRFSGSGSGADYSLTISSLESEDFADYYCVQYAQFPYTFGGGTKLEIKR
B10: LK-RB2-28 (antibody, human IgG4 S228P, kappa, V domains shown)
VH: B9 VH with V64M
VL: B9 VL with T22A
B11: LK-RB2-34 (antibody, human IgG4 S228P, kappa, V domains shown)
VH: B9 VH with L4V, G55S, P61S
VL: B9 VL with T52I
B12: LK-RB2-7 (antibody, human IgG4 S228P, kappa, V domains shown)
VH: DVKLVESGEGLVKPGGSLKLSCAASGFTFSSYAMSWVRQTPEMRLEWVAYISSGGDHFYYADTVKGRFTISRDNARSTLYLQMSSLKSEDTAMYYCTREGASYDSNFLAWFAYWGQGTLVTVSA
VL: DIQMTQSPASLSVSVGETVTITCRASENIYSNLAWYQQKEGKSPQLLVYGATNLADGVPSRFSGSGSGTQYSLKINSLQSEDFGSYYCQNFWDIPLTFGAGTKLELKR
B13: LK-RB2-18 (antibody, human IgG4 S228P, kappa, V domains shown)
VH: EVQLQQSGPELVKPGTSVKISCKASGYTFTDYYMNWVKQSHGKSLEWIGDINPNNGGTSYNQKFKGKATLTVDKSSSTAYMELRSLTSEDSAVFYCARSGTTVVGTYWYFDVWGTGTTVTVSS
VL: B12 VL with E40Q, N90H, I94T, L96F, A100S, L106I
B14: LK-RB2-9 (antibody, human IgG4 S228P, kappa, V domains shown)
VH: DVQLQESGPGLVKPSQSLSLTCSVTGYSITSGYYWNWIRQFPGNKLEWMGYIGYDGNNNYNPSLKNRISITRDTSKNQFFLKLNSLTTEDTATYYCAREGSTMVTSWFAYWGQGTLVTVSA
VL: B12 VL with E40Q, S65R, G68D, N90H, I94T, L96Y, A100G, L106I
B15: LK-RB2-30 (antibody, human IgG4 S228P, kappa, V domains shown)
VH: EVQLVESGGGLVQPGGSLKLSCAASGFTFNTDGMSWVRQTPDKRLELVAIINSNGGSTYYPDSVKGRFTISRDNAKNTLYLQMSSLKSEDTAMYYCAREGSYGSWFAYWGQGTLVTVSA
VL: DIQMTQSPASLSVSVGETVTITCRASENINNNLAWYHQKQGKSPQLLVYAATNLADGVPSRFSGSGSGTQYSLKINSLQSEDFGSYYCQHFWGTPFTFGGGTKLEIKR
B16: p1E1 (antibody, human IgG4 S228P, kappa, V domains shown)
VH: EVQLQQWGAGLLKPSETLSLTCAVYGGSFSGYYWSWIRQPPGKGLEWIGEINHSGSTNYNPSLKSRVTISVDTSKNQFSLKLSSVTAADTAVYYCARLPTRWVTTRYFDLWGRGTLVTVSS
VL: ESVLTQPPSVSGAPGQRVTISCTGSSSNIGAGYDVHWYQQLPGTAPKLLIYGNSNRPSGVPDRFSVSKSGASASLAITGLQAEDEADYYCQSFDNSLSAYVFGGGTQLTVLG
B17: LK-RB2-47 (antibody, human IgG4 S228P, kappa, V domains shown)
VH: QVQLKQSGPGLVQPSQSLSITCTVSGFSLISYGVHWVRQSPGKGLEWLGVIWSGGSTDYNAAFISRLSISKDNSKSQVFFKMNSLQADDTAIYYCARSFHYHGSTFDYWGQGTTLTVSS
VL: DIQMTQTTSSLSASLGDRVIISCRASQDINNYLNWYQQKPDGTVKLLIYFTSRLHSGVPSSFSGSGSGTDYSLTINNLEQEDIATYFCQQVNTLPYTFGGGTKLEIKR
B18: LK-RB2-46 (antibody, human IgG4 S228P, kappa, V domains shown)
VH: QVQMQQSDAELVKPGASVKISCKVSGYTFTDQIIHWMKQRPEQGLEWIGYIYPRDDSIMYNEKFKGKATLTADKSSSTANMQLNSLTSEDSAVYFCAYDAYWYFDVWGTGTTVIVSS
VL: DIVMTQSHKFMSASVGDRVSITCKASQDVNTAVAWYRQDPGQSPKLLIYWASTRHTGVPDRFTGSGSGTDYTLTINNFQAEDLALYYCQQHYSPPLTFGAGTKLELKR
B19: LK-RB2-20 (antibody, human IgG4 S228P, kappa, V domains shown)
VH: QVQLKQPGAERVKPGASVKMSCKASGYTFTRYWITWVKQRPGQGLEWIGDIYPGSATTNYNEKFKSKATLTEDTSSSTAYMQLSSLTSEDSAVYYCARSGDYSNSNYAMDYWGQGTSVTVSS
VL: NIEMTQSPKSMSMAVGERVTLSCKASENVGTYVSWYQQKPEQSPKLLIYGASNRNTGVPDRFTGSGSATDFTLTISSVQAEDLADYHCGQSYSYPFTFGSGTKLEIKR
B20: LK-RB2-10 (antibody, human IgG4 S228P, kappa, V domains shown)
VH: EVMLVESGGDLVKPGGSLKLSCAASGFTFSANTVSWLRRTPERRLEWVATISGGSDNTYCPDSVKGRFTISRDNARDTLYLQMSSLTSEDTALYFCARHYYDGPNWYFDVWGPGTTVTVSS
VL: DIVMTQSQKFMSSTGGDRVTITCKASQNVDTAVAWYQQKPGQSPKLLIYSASNRYIGVPDRFKGSGSGTDFSLTITNIQSEDLAEYFCQQYSSYPLTFGAGTKLELKR
B21: LK-RB2-11 (antibody, human IgG4 S228P, kappa, V domains shown)
VH: QIQLVQSGPELKKPGETVKISCKASGYSFITYGMSWVKQAPGKGLKWMGWINTYSGEPTYGDDFMGRFAFSLETSASTAYLQINNLKNEDTASYFCARYHYDDGMDYWGQGTSVTVSS
VL: DIKMTQSPSSMYASLGERVTITCKASQDINNYLSWFQQKPGKSPKTLIFRANRLVDGVPSRFSGSGSGQDYSLTISSLEDEDMGIYYCLQYDEFPWMFGGGTKLEIER
B22: LK-RB2-39 (antibody, human IgG4 S228P, kappa, V domains shown)
VH: DVKLVESGGGSVQPGGSLKLSCAASGFTFSDYYMYWVRQTPEKRLEWVAYISNGGGNTYYPDTVKGRFTISRDNAKNTLYLQMSRLKSEDTAMYYCARSNWAWYFDVWGTGTTVTVSS
VL: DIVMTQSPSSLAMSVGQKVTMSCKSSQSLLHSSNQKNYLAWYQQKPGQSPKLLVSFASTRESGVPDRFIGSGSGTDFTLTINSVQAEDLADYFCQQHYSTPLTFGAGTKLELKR

What follows are binders tested against T1, human LILRB1 expressed on CHOK1 cells (CHOK1-hLILRB1) (human, UniProt Q8NHL6 24-650) (assay: FACS binding to CHOK1-hLILRB1 cells).
T1 construct: whole, on cells; also called CHOK1-LILRB1
T1 sequence (Q8NHL6 24-650): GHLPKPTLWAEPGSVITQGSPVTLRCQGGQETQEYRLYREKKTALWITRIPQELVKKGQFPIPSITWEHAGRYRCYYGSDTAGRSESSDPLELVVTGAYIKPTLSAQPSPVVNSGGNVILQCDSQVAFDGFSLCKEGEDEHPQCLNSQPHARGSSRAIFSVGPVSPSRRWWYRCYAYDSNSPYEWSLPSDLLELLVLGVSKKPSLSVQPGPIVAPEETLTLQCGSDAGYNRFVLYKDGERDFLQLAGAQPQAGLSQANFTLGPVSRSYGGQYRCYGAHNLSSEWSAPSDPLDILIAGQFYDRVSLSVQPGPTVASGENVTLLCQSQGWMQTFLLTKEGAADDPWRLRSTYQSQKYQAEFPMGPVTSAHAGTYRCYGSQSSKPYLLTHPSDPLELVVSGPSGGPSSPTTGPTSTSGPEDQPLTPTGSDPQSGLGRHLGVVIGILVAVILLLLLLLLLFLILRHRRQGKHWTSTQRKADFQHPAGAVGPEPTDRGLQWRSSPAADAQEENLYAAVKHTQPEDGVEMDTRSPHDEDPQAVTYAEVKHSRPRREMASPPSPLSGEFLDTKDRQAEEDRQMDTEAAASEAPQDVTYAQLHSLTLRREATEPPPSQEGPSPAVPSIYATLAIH

EC50 [nM]	binding result	Binder
1.71		B1
	no binding	B2
	no binding	B3
	no binding	B4
	no binding	B5
	no binding	B6
1.99		B7
	no binding	B8
	no binding	B9
	no binding	B10
	no binding	B11
	no binding	B12
	no binding	B13
	no binding	B14
	no binding	B15
	no binding	B16
	no binding	B17
	no binding	B18
	no binding	B19
	no binding	B20
	no binding	B21
	no binding	B22

These binders were tested against T2, human LILRB2 expressed on CHOK1 cells (CHOK1-hLILRB2) (human, UniProt Q8N423 22-597) (assay: FACS binding to CHOK1-hLILRB2 cells).
T2 construct: whole, on cells; also called CHOK1-LILRB2
T2 sequence (Q8N423 22-597): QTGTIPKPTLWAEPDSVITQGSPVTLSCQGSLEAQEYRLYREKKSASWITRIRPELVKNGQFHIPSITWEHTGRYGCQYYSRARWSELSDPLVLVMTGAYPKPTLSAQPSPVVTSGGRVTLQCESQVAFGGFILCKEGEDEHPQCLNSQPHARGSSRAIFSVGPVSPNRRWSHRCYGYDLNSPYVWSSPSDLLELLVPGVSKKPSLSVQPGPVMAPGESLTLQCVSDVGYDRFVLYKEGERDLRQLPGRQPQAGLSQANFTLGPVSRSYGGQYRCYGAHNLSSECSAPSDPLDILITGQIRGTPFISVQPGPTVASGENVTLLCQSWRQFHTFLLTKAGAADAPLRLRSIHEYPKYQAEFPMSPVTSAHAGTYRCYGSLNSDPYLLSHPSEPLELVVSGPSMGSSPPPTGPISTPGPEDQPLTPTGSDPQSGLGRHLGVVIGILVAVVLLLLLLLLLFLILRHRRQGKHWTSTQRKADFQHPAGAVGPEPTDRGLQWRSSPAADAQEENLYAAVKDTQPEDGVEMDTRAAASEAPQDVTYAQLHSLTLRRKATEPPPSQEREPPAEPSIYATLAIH

binding result	EC50 [nM]	Binder
no binding		B1
	0.66	B2
	0.23	B3
	0.16	B4
no binding		B5
no binding		B6
no binding		B7
no binding		B8
no binding		B9
no binding		B10
no binding		B11
	0.25	B12
	0.14	B13
	0.17	B14
no binding		B15
	0.64	B16
no binding		B17
	0.35	B18
	0.14	B19
	0.27	B20
	0.27	B21
	36.6	B22
